Source: patent US20250289867A1

Target: MERS spike on pseudotyped lentiviral particles (MERS coronavirus) (UniProt K9N5Q8)
Experiment: cell-based or functional assay

Sequence of UniProt K9N5Q8 (K9N5Q8 18-1353): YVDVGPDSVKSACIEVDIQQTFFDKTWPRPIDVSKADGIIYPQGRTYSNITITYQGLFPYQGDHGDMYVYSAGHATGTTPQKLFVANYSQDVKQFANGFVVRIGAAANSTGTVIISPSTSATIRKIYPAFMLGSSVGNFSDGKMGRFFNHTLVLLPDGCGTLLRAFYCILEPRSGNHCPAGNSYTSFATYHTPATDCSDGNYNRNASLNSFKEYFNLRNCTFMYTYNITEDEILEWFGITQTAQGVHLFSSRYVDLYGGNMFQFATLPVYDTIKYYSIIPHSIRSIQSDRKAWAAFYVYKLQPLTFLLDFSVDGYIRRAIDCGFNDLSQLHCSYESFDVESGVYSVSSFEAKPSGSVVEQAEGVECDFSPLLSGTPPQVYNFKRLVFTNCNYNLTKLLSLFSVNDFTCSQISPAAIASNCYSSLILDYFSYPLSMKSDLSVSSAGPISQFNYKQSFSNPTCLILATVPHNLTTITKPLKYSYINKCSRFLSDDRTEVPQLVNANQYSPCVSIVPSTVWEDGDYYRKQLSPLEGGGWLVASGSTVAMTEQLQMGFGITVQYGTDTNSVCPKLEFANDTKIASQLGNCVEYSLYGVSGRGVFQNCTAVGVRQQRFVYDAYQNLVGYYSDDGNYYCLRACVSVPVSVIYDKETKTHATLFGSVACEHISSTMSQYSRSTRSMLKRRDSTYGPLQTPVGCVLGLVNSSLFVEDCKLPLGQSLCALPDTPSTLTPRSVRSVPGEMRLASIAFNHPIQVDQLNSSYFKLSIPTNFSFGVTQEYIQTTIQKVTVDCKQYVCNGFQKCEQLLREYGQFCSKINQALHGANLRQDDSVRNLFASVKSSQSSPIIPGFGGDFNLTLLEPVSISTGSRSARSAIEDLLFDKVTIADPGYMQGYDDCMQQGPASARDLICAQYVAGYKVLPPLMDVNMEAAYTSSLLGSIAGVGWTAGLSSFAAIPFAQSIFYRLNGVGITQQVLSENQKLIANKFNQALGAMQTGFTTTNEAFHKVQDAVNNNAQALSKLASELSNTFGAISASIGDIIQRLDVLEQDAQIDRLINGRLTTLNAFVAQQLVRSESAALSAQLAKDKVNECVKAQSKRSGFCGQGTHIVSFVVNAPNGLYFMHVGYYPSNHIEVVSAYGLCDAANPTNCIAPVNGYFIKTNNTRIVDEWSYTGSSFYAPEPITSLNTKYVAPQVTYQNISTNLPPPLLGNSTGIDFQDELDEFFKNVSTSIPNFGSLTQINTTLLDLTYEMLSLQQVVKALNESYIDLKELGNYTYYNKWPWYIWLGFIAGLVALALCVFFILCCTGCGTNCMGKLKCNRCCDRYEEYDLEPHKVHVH

| Substance | IC50, pseudovirus neutralization assay, H1650 target cells [pM] | IC50, pseudovirus microneutralization assay, H1650 target cells [pM] |
| --- | --- | --- |
| NA75-DPP4, displayed on lentiviral-based multivalent particles (from UniProt P27487 30-766) (receptor) | 0.87 | – |
| DPP4 recombinant protein (from UniProt P27487 39-766) (receptor) | – | > 48000 |
